The values below come from US6410775.

Test [1] concerns the target ACA-6501 aPL antibody. Description: competitive ELISA I50; antibody not given, ACA-6501 serum on CL/β2-GPI assumed (Ex. 4B). In general terms: An ELISA detects its analyte on a solid surface through an enzyme-linked reagent.
For test [2], the target named is ACA-6701 aPL antibody. Description: competitive fluorescence polarization (cFP), displacement of CB2*-F.
Test [3] deals with ACA-6701 aPL antibody. Description: fluorescence polarization.
In test [4] the target is nine affinity purified ACA antibodies. The experiment in a line: competitive ELISA on CL/β2-GPI plates, peptide monomer 200 µg/mL; average of nine ACA.
Test [5] addresses ACA-6644 aPL antibody. Description: competitive ELISA on CL/β2-GPI plates, peptide monomer 200 µg/mL, affinity-purified ACA.
Test [6] concerns the target ACA-6903 aPL antibody. The test is described as above.
Test [7] addresses ACA-6501 aPL antibody. The description is as above.
Test [8] deals with ACA-6626 aPL antibody. Described as above.
Test [9] deals with ACA-7005 aPL antibody. Described as above.
The target in test [10] is ACA-6641 aPL antibody. The test is described as above.
The target in test [11] is ACA-7004 aPL antibody. Described as above.
In test [12] the target is ACA-6701 aPL antibody. Described as above.
The target in test [13] is ACA-6638 aPL antibody. The description is as above.
The target of test [14] is nine affinity purified ACA antibodies. The experiment in a line: competitive ELISA on CL/β2-GPI plates, peptide monomer 1 mg/mL; average of nine ACA.
Test [15] deals with ACA-6644 aPL antibody. Description: competitive ELISA on CL/β2-GPI plates, peptide monomer 1 mg/mL, affinity-purified ACA.
In test [16] the target is ACA-6903 aPL antibody. Described as above.
The target in test [17] is ACA-6501 aPL antibody. The description is as above.
The target of test [18] is ACA-6626 aPL antibody. The test is described as above.
For test [19], the target named is ACA-7005 aPL antibody. Described as above.
The target in test [20] is ACA-6641 aPL antibody. Described as above.
Test [21] concerns the target ACA-7004 aPL antibody. The description is as above.
In test [22] the target is ACA-6701 aPL antibody. The test is described as above.
The target in test [23] is ACA-6638 aPL antibody. The description is as above.

Bridge positions count the residues as written; N and C are the ends. Square brackets hold non-standard residues; d marks the D form. Ends that are not written are not given here. NMeL = CN[C@@H](CC(C)C)C(=O)O; NMeV = CN[C@H](C(=O)O)C(C)C; ATU = not defined here; Sar = CNCC(=O)O

CLGV[NMeL]GKLC (not fully specified (bridges); cysteine pairing not given here) [3G3 N-Me amino acids 5: CLGV-nL-GKLC]: the IC50 (usually the concentration needed to halve the response being measured) in the test with ACA-6501 aPL antibody [1] was 180 µg/mL.
In the case of GPCILLARDRCG (disulfide 3-11 (inferred)) [CB2* …], the Ki (in general, the equilibrium dissociation constant of an inhibitor or competing ligand from its target) with ACA-6701 aPL antibody [2] is 35 nM. The same molecule displayed a fold improvement in binding against CB2*-F with ACA-6701 aPL antibody [3] of 14 fold.
In test [4], GILALDYVGG [peptide ACA-6644/CBf …] returned a percent inhibition (Ave.) of 39%. Besides, the percent inhibition with ACA-6644 aPL antibody [5] is 18%; with ACA-6903 aPL antibody [6] it was 43%; with ACA-6501 aPL antibody [7] it was 37%; in the test with ACA-6626 aPL antibody [8] it was 37%; with ACA-7005 aPL antibody [9] it was 57%; with ACA-6641 aPL antibody [10], 28%. Besides, the percent inhibition worked out at 54% in the test with ACA-7004 aPL antibody [11], 22% in the test with ACA-6701 aPL antibody [12] and 60% with ACA-6638 aPL antibody [13].
CLGVLGKLC (not fully specified; "TGR resin" printed after the C-terminus) [3G3 others 3: … TGR resin] showed an IC50 in the test with ACA-6501 aPL antibody [1] of 500 µg/mL.
On to AGPLSDPGYVRNIFHPG [peptide ACA-6701/3B1 …], for which the percent inhibition (Ave.) in test [14] amounted to 52%. For the same molecule, the percent inhibition with ACA-6644 aPL antibody [15] was 37%; with ACA-6903 aPL antibody [16], 51%; in the test with ACA-6501 aPL antibody [17] it was 41%; with ACA-6626 aPL antibody [18], 43%; in the test with ACA-7005 aPL antibody [19], 23%; in the test with ACA-6641 aPL antibody [20] it was 43%. For the same molecule, the percent inhibition is 72% with ACA-7004 aPL antibody [21], 96% with ACA-6701 aPL antibody [22] and 65% in the test with ACA-6638 aPL antibody [23].
In the test with ACA-6501 aPL antibody [1], CLGV[dL]GKLC (not fully specified (bridges); cysteine pairing not given here) [3G3 D amino acids 4: CLGV-dL-GKLC] came in with a 50% inhibitory concentration (IC50) of 230 µg/mL.
With CLGVLGK[NMeL]C (not fully specified (bridges); cysteine pairing not given here) [3G3 N-Me amino acids 8: CLGVLGK-nL-C], in the test with ACA-6501 aPL antibody [1], the 50% inhibitory concentration (IC50) was found to be 240 µg/mL. This IC50 and that of the molecule before are within 1.5-fold of each other.
On the same count and under the same terms, under CLGVLG[dL][dL]C (not fully specified (bridges); cysteine pairing not given here) [3G3 D amino acids 21: CLGVLG-dL-dL-C] stands 140 µg/mL.
The molecule AGPCLLLAPDRCPG [peptide ACA-6501/3B10 … (monomer)] yielded a percent inhibition (Ave.) in [14] of 65%. Besides, the Ki in the test with ACA-6701 aPL antibody [2] is 313 nM. The percent inhibition with ACA-6644 aPL antibody [15] stood at 55%; with ACA-6903 aPL antibody [16] it was 69%; in the test with ACA-6501 aPL antibody [17], 60%; with ACA-6626 aPL antibody [18] it was 76%; in the test with ACA-7005 aPL antibody [19], 47%; with ACA-6641 aPL antibody [20], 52%. The percent inhibition was determined as 87% with ACA-7004 aPL antibody [21], 51% with ACA-6701 aPL antibody [22] and 87% in the test with ACA-6638 aPL antibody [23]. The same molecule displayed a fold weaker binding against CB2* with ACA-6701 aPL antibody [3] of 9 fold.
Regarding CLG[dV][dL]GKLC (not fully specified (bridges); cysteine pairing not given here) [3G3 D amino acids 10: CLG-dV-dL-GKLC], in the test with ACA-6501 aPL antibody [1], the IC50 stood at 50 µg/mL.

B1: 3G3 others 2: Y-ATU-… (peptide)
peptide: {Tyr-ATU}-CLGVLGKLC
modifications: not fully specified (bridges); printed as Y-ATU-CLGVLGKLC; cysteine pairing not given here; reading uncertain
B1 yielded an IC50 in the test with ACA-6501 aPL antibody [1] of 170 µg/mL.
CLGVL[Sar]KLC (not fully specified (bridges); cysteine pairing not given here) [3G3 N-Me amino acids 6: CLGVL-nG-KLC]: in the test with ACA-6501 aPL antibody [1], the IC50 was 550 µg/mL.
The same measure, in the same setting: in the case of CL[Sar]VLGKLC (not fully specified (bridges); cysteine pairing not given here) [3G3 N-Me amino acids 3: CL-nG-VLGKLC] it was 70 µg/mL; in that of CLGVLGKLC (not fully specified; C-terminal ATU-Y as printed (ATU linker, then Tyr)) [3G3 others 1: …-ATU-Y], 300 µg/mL.
Take CLGVLG[dK][dL]C (not fully specified (bridges); cysteine pairing not given here) [3G3 D amino acids 18: CLGVLG-dK-dL-C]: in the test with ACA-6501 aPL antibody [1], the IC50 is 150 µg/mL. Compared with the last molecule, the IC50 is about 2-fold lower.
The same measure, in the same setting: under CLGVL[dA]KLC (not fully specified (bridges); cysteine pairing not given here) [3G3 D amino acids 22: CLGVL-dA-KLC] stands 140 µg/mL; under CLGVLG[dK]LC (not fully specified (bridges); cysteine pairing not given here) [3G3 D amino acids 5: CLGVLG-dK-LC], 170 µg/mL; under CLGVLGK[dL]C (not fully specified (bridges); cysteine pairing not given here) [3G3 D amino acids 6: CLGVLGK-dL-C], 140 µg/mL.
Turning to CLG[NMeV]LGKLC (not fully specified (bridges); cysteine pairing not given here) [3G3 N-Me amino acids 4: CLG-nV-LGKLC], the IC50 with ACA-6501 aPL antibody [1] came to 220 µg/mL.
